Experimental data published in US20040005324A1 (INTRACEL RESOURCES, published 2004).

What was measured:
BSA = BSA (UniProt P02769 25-607); assay: ELISA with purified Fab
[1] = target: RSV F glycoprotein of MARM v1129 (strain A2 escape mutant, substitution at aa 275) (respiratory syncytial virus strain A2, UniProt P03420 26-574); assay: cell-based or functional assay
[2] = target: RSV F glycoprotein of MARM v1237 (strain A2 escape mutant, substitution at aa 276) (respiratory syncytial virus strain A2, UniProt P03420 26-574); assay: cell-based or functional assay
[3] = target: RSV F glycoprotein of MARM v1200 (strain A2 escape mutant, substitution at aa 272) (respiratory syncytial virus strain A2, UniProt P03420 26-574); assay: cell-based or functional assay
[4] = target: RSV F glycoprotein of MARM v1153 (strain A2 escape mutant, substitution at aa 262) (respiratory syncytial virus strain A2, UniProt P03420 26-574); assay: cell-based or functional assay
[5] = target: RSV F glycoprotein of wild type RSV strain A2 (respiratory syncytial virus strain A2, UniProt P03420 26-574); assay: cell-based or functional assay
[6] = target: RSV F glycoprotein of MARM v1214 (strain A2 escape mutant, substitution at aa 276) (respiratory syncytial virus strain A2, UniProt P03420 26-574); assay: cell-based or functional assay
[7] = target: RSV F glycoprotein of MARM v324 (strain A2 escape mutant, arginine to serine at residue 429 of the F1 subunit) (respiratory syncytial virus strain A2, UniProt P03420 26-574, limits assumed); assay: cell-based or functional assay
[8] = target: RSV F glycoprotein of MARM vN151 (strain A2 escape mutant, substitution at aa 272) (respiratory syncytial virus strain A2, UniProt P03420 26-574); assay: cell-based or functional assay
[9] = target: RSV F glycoprotein of subgroup A isolate SL/10865/′84 (respiratory syncytial virus, subgroup A); assay: cell-based or functional assay
[10] = target: RSV F glycoprotein of subgroup A isolate OK/9970/′85 (respiratory syncytial virus, subgroup A); assay: cell-based or functional assay
[11] = target: RSV F glycoprotein of subgroup B isolate WV/474R/′90 (respiratory syncytial virus, subgroup B); assay: cell-based or functional assay
[12] = target: RSV F glycoprotein of subgroup B isolate WV/1293/′75 (respiratory syncytial virus, subgroup B); assay: cell-based or functional assay
[13] = target: RSV F glycoprotein of subgroup B isolate WV/4843/′80 (respiratory syncytial virus, subgroup B); assay: cell-based or functional assay
[14] = target: RSV F glycoprotein of subgroup A isolate SL/10849/′84 (respiratory syncytial virus, subgroup A); assay: cell-based or functional assay
[15] = target: RSV F glycoprotein of subgroup B isolate Wash/18537/′62 (respiratory syncytial virus, subgroup B, UniProt P13843 26-574); assay: cell-based or functional assay
[16] = target: RSV F glycoprotein of subgroup A isolate SW/669/′59 (respiratory syncytial virus, subgroup A); assay: cell-based or functional assay
[17] = target: RSV F glycoprotein of subgroup A isolate Bir/1734/′89 (respiratory syncytial virus, subgroup A); assay: cell-based or functional assay
[18] = target: RSV F glycoprotein of subgroup A isolate SL/863/′84 (respiratory syncytial virus, subgroup A); assay: cell-based or functional assay
[19] = target: RSV F glycoprotein of subgroup B isolate WV/2B/′87 (respiratory syncytial virus, subgroup B); assay: cell-based or functional assay
[20] = target: RSV F glycoprotein of subgroup A isolate New/RSS-2/′76 (respiratory syncytial virus, subgroup A, UniProt P11209 26-574); assay: cell-based or functional assay
[21] = target: RSV F glycoprotein of subgroup A isolate Wash/11657/′60 (respiratory syncytial virus, subgroup A); assay: cell-based or functional assay
[22] = target: RSV F glycoprotein of subgroup B isolate WV/17154/′85 (respiratory syncytial virus, subgroup B); assay: cell-based or functional assay
[23] = target: RSV F glycoprotein of subgroup B isolate WV/14617/′85 (respiratory syncytial virus, subgroup B); assay: cell-based or functional assay
[24] = target: RSV F glycoprotein of subgroup A isolate Bir/6190/′89 (respiratory syncytial virus, subgroup A); assay: cell-based or functional assay
[25] = target: RSV F glycoprotein of subgroup B isolate WV/20323/′87 (respiratory syncytial virus, subgroup B); assay: cell-based or functional assay
[26] = target: RSV F glycoprotein of subgroup A isolate Wash/Bern/′65 (respiratory syncytial virus, subgroup A); assay: cell-based or functional assay
[27] = target: RSV F glycoprotein of subgroup B isolate WV/285R/′90 (respiratory syncytial virus, subgroup B); assay: cell-based or functional assay
[28] = target: RSV F glycoprotein of subgroup B isolate WV/401R/′90 (respiratory syncytial virus, subgroup B); assay: cell-based or functional assay

BSA, sequence (P02769 25-607 limits assumed): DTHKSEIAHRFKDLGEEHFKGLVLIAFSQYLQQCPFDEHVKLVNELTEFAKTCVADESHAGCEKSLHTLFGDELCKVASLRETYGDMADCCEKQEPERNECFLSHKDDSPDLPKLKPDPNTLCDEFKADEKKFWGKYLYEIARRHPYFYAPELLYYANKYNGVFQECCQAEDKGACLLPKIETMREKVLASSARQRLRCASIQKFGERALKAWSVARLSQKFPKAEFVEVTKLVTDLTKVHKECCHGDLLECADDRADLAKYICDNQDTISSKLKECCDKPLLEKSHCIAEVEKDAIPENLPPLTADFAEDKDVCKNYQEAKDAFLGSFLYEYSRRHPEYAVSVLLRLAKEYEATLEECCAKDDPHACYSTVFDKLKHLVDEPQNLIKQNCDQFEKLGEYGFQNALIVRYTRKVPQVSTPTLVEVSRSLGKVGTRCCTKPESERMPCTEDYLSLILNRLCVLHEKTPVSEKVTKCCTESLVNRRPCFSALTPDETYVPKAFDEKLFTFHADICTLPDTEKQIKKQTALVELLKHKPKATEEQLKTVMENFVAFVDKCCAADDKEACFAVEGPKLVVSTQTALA

B1: human monoclonal Fab RSVF2-5 (Fab, V domains shown)
VH: LEESGGDLVQPGRSLRLSCSTSGFSFGDYPVNWFRQAPGKGLEWLGIVRSRLYGGTLQYAASVEGRFTISRDDSKSIAYLHMNSLKSEDTAVYYCGVPVANIDYWGQGTLVTVSS
VL: LTQPHSVSESLGKTVTISCTRAGGRIASNYVQWYQQRPGSSPTTVIYEDNQRPFGVPDRFSGSIDTSSNSASLTISGLKTEDEADYYCQSYDSENPWVFGGGTKLTVLG
notes: CH1 and CL are therefore probably not in these entries; also called RSV Fab F2-5
Question: Does B1 bind (BSA)?
Answer: no binding

Question: What about the “Dose for 60% plaque reduction” value [1] of the same binder?
Answer: 0.5 µg/mL

Question: And the “Dose for 60% plaque reduction” value [2]?
Answer: < 0.3 µg/mL

Question: And the “Dose for 60% plaque reduction” value [3]?
Answer: 0.3 µg/mL

Question: What about the “Dose for 60% plaque reduction” value [4] of the same binder?
Answer: 0.9 µg/mL

Question: What about the “Dose for 60% plaque reduction” value [5] of the same binder?
Answer: 0.1 µg/mL

Question: And the “Dose for 60% plaque reduction” value [6]?
Answer: 0.1 µg/mL

Question: What about the “Dose for 60% plaque reduction” value [7] of the same binder?
Answer: > 18 µg/mL

Question: And the “Dose for 60% plaque reduction” value [8]?
Answer: 0.4 µg/mL

Question: What about the “Specific neutralization activity (µg/ml): purified Fab for 60% plaque reduction, Vero cells” value [9] of the same binder?
Answer: 0.4 µg/mL

Question: What about the “Specific neutralization activity (µg/ml): purified Fab for 60% plaque reduction, Vero cells” value [10] of the same binder?
Answer: 1.4 µg/mL

Question: And the “Specific neutralization activity (µg/ml): purified Fab for 60% plaque reduction, Vero cells” value [11]?
Answer: 0.9 µg/mL

Question: What about the “Specific neutralization activity (µg/ml): purified Fab for 60% plaque reduction, Vero cells” value [12] of the same binder?
Answer: 1 µg/mL

Question: What about the “Specific neutralization activity (µg/ml): purified Fab for 60% plaque reduction, Vero cells” value [13] of the same binder?
Answer: 0.5 µg/mL

Question: And the “Specific neutralization activity (µg/ml): purified Fab for 60% plaque reduction, Vero cells” value [14]?
Answer: 0.9 µg/mL

Question: And the “Specific neutralization activity (µg/ml): purified Fab for 60% plaque reduction, Vero cells” value [15]?
Answer: 0.5 µg/mL

Question: And the “Specific neutralization activity (µg/ml): purified Fab for 60% plaque reduction, Vero cells” value [16]?
Answer: 3 µg/mL

Question: And the “Specific neutralization activity (µg/ml): purified Fab for 60% plaque reduction, Vero cells” value [17]?
Answer: 1.1 µg/mL

Question: And the “Specific neutralization activity (µg/ml): purified Fab for 60% plaque reduction, Vero cells” value [18]?
Answer: 0.2 µg/mL

Question: What about the “Specific neutralization activity (µg/ml): purified Fab for 60% plaque reduction, Vero cells” value [19] of the same binder?
Answer: 0.3 µg/mL

Question: What about the “Specific neutralization activity (µg/ml): purified Fab for 60% plaque reduction, Vero cells” value [20] of the same binder?
Answer: 1.9 µg/mL

Question: And the “Specific neutralization activity (µg/ml): purified Fab for 60% plaque reduction, Vero cells” value [21]?
Answer: 1.6 µg/mL

Question: And the “Specific neutralization activity (µg/ml): purified Fab for 60% plaque reduction, Vero cells” value [22]?
Answer: 2.1 µg/mL

Question: And the “Specific neutralization activity (µg/ml): purified Fab for 60% plaque reduction, Vero cells” value [23]?
Answer: 2.6 µg/mL

Question: And the “Specific neutralization activity (µg/ml): purified Fab for 60% plaque reduction, Vero cells” value [24]?
Answer: 2.4 µg/mL

Question: What about the “Specific neutralization activity (µg/ml): purified Fab for 60% plaque reduction, Vero cells” value [25] of the same binder?
Answer: 0.8 µg/mL

Question: And the “Specific neutralization activity (µg/ml): purified Fab for 60% plaque reduction, Vero cells” value [26]?
Answer: 0.6 µg/mL

Question: And the “Specific neutralization activity (µg/ml): purified Fab for 60% plaque reduction, Vero cells” value [27]?
Answer: 0.6 µg/mL

Question: What about the “Specific neutralization activity (µg/ml): purified Fab for 60% plaque reduction, Vero cells” value [28] of the same binder?
Answer: 0.7 µg/mL
